Reference: patent publication US20180344832A1

Target: PDL1 on the surface of TC-1 cells (murine (TC-1 murine tumor cell line)) (UniProt Q9EP73)
Assay: flow cytometry on TC-1 cells, isotype background control

UniProt Q9EP73, sequence (Q9EP73 19-290): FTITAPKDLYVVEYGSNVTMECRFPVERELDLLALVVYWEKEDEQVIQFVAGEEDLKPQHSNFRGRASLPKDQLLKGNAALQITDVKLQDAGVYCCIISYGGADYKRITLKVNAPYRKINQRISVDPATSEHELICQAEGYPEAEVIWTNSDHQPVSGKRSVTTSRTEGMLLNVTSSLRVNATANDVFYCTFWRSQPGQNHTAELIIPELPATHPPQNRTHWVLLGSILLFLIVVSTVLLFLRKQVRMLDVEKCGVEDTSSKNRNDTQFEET

Substance: PE-conjugated isotype control antibody
- median fluorescent intensity (MFI): 184 MFI
